These results are taken from publication PMC9938351.

What all share (assay): ITC
(In general: In ITC the heat of successive injections is recorded.)

The target of test [1] is SARS-CoV-2 Ubl1 D110A (SARS-CoV-2).
In test [2] the target is SARS-CoV-2 Ubl1 Y103A (SARS-CoV-2).
Test [3] addresses SARS-CoV-2 Ubl1 E95A (SARS-CoV-2).
Test [4] has as its target SARS-CoV-2 Ubl1 E26A (SARS-CoV-2).
Test [5] deals with SARS-CoV-2 ubiquitin-like domain 1 (Ubl1) of Nsp3 (residues 1–111) (SARS-CoV-2).

Take “SARS-CoV-2 N protein N-terminal domain (NTD, residues 47–174) (from UniProt P0DTC9 47-174) (domain or fragment)”: the Kd (commonly a measure of binding affinity in units of concentration) is 50.8 µM in test [1]; 57.7 µM in test [2]; 53.1 µM in test [3]; 78.6 µM in test [4]; 17 µM in test [5]. Also, the dH in test [1] is -2.65 kcal/mol; in test [2], -0.741 kcal/mol; in test [3], -1.24 kcal/mol; in test [4], -3.37 kcal/mol; in test [5] it was -2.7 kcal/mol. Also, the stoichiometry N (commonly the number of molecules, sites or subunits per partner or assembly) stood at 0.64 in test [1]; 0.57 in test [2]; 0.75 in test [3]; 0.74 in test [4]; 0.73 in test [5].
In test [5], “SARS-CoV-2 N-NTD R92A (from UniProt P0DTC9 47-174) (domain or fragment)” came in with a Kd of 55.7 µM, a dH of -3.18 kcal/mol and a stoichiometry N of 0.58.
